Reference: patent publication US20210054055A1 (UNIVERSITY OF VERMONT AND STATE AGRICULTURAL COLLEGE, published 2021)
Like-named read-outs stand apart in the source and are kept apart here.

T1: MR766
T1 envelope protein E: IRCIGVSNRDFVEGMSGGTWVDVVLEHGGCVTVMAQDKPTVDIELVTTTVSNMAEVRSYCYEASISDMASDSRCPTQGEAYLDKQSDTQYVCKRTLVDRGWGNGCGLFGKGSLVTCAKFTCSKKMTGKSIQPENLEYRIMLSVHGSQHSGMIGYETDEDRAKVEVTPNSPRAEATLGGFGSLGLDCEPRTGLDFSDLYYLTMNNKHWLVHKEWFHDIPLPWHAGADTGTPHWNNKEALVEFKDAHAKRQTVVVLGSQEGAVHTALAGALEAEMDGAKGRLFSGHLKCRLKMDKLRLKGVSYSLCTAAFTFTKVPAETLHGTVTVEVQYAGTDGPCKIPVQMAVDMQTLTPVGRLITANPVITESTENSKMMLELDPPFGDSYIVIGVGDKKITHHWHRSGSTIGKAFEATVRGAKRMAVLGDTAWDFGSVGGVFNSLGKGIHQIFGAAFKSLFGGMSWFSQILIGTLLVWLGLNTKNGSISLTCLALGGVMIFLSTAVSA


Legend:
H/PF/2013 = H/PF/2013 (Zika virus); test: cell-based or functional assay
Dakar = Dakar (Zika virus); test: cell-based or functional assay
MR766 = target: T1, MR766; test: cell-based or functional assay
[1] = target: T2, ZIKV recombinant E (ZIKV E80), recombinantly expressed monomeric ectodomain of ZIKV E protein (Zika virus, UniProt A0A024B7W1 291-694)
[2] = target: T3, Zika virus (ZIKV) virions, envelope protein E (Zika virus, UniProt A0A024B7W1 291-794)
[3] = target: T2, ZIKV recombinant E (ZIKV E80), …; remark: listed apart in the source
[4] = target: T3, Zika virus (ZIKV) virions, envelope …; remark: listed apart in the source
[5] = target: T4, Dengue virus serotype 1 (DENV1) virions, envelope protein E (Dengue virus 1, UniProt P17763 281-775); test: antigen capture ELISA
T4 construct: domain: envelope protein E

[6] = target: T3, Zika virus (ZIKV) virions, envelope …; remark: listed apart in the source
[7] = target: T2, ZIKV recombinant E (ZIKV E80), …; remark: listed apart in the source
[8] = target: T3, Zika virus (ZIKV) virions, envelope …; remark: listed apart in the source
[9] = target: T3, Zika virus (ZIKV) virions, envelope …; remark: listed apart in the source
[10] = target: T5, ZVEDI, recombinant ZIKV E domain I (Zika virus, UniProt A0A024B7W1 291-585); test: direct antigen coating ELISA
[11] = target: ZVEDIII, recombinant ZIKV E domain III (Zika virus, UniProt A0A024B7W1 586-693); test: direct antigen coating ELISA
[12] = target: ZIKV/2015/Paraiba, envelope protein E (Zika virus strain ZIKV/2015/Paraiba); test: cell-based or functional assay
[13] = target: T2, ZIKV recombinant E (ZIKV E80), …; test: direct antigen coating ELISA, 50 ng recombinant antigen per well; target ZIKV E80
[14] = target: T5, ZVEDI, recombinant ZIKV E domain I; test: direct antigen coating ELISA, 50 ng recombinant antigen per well; target ZVEDI (domain I)

T4 sequence (P17763 281-775 limits assumed): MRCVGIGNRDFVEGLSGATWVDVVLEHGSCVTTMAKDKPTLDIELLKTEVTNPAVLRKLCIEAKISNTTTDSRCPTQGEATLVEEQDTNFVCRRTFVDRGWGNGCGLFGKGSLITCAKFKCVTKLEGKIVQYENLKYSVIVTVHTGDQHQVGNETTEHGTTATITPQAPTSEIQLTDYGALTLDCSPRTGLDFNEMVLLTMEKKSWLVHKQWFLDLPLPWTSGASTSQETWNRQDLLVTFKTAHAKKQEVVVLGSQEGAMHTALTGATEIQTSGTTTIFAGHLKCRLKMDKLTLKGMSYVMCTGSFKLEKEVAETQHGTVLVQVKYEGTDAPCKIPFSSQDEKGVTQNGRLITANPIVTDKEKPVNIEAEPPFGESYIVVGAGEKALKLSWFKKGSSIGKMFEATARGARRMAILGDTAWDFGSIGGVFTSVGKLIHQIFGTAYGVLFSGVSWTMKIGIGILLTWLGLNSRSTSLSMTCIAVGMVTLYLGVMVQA
Sequence of ZVEDIII, recombinant ZIKV E domain III (A0A024B7W1 586-693 limits assumed): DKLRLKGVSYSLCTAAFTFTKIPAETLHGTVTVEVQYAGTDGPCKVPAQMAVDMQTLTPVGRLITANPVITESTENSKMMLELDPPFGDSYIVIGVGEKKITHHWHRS

| Binder | FRNT50 (focus reduction neutralization on Vero cells) (H/PF/2013) | FRNT50 (focus reduction neutralization on Vero cells) (Dakar) | FRNT50 (focus reduction neutralization on Vero cells) (MR766) | EC50 (read off the curve) [1] | IC50 (read off the curve) [2] | EC50 (read off the curve) [3] | IC50 (read off the curve) [4] | binding result [5] | EC50 (read off the curve) [6] | EC50 (read off the curve) [7] | EC50 (read off the curve) [8] | IC50 (read off the curve) [9] | binding result [10] | binding result [11] | EC50, Vero-based neutralization assay against ZIKA/2015/Paraiba [12] | EC50 [13] | EC50 [14] |
| --- | --- | --- | --- | --- | --- | --- | --- | --- | --- | --- | --- | --- | --- | --- | --- | --- | --- |
| Anti-ZIKV clone DT168(A)-D1_G-9E (G9E) (antibody, V domains shown, also called ZV2; G9E mAb) VH: EVQLVESGGGVVQPGRSLRLSCVASGFAFSNYHMHWVRQAPGKGLEWVAIIWDDGSDQYYADSVKGRFTISRDNSKNTLFLQMNRLRAEDTALYYCVGGSSAYNGDNGWREAASLDDWGQGTLVTVSS VL: QSALTQPASVSGSPGQSITIFCSGSSNDVGGYNYVSWYQQYPGKVPKLLIYDVNSRPSGVSNRFSGSKSGNTASLTISGLQAEDEADYYCSSYTSRRTWVFGGGTIVTVL | 4.7 ng/mL | 14.6 ng/mL | 2.3 ng/mL | ~0.2 µg/mL | ~0.05 µg/mL | ~0.3 µg/mL | ~0.05 µg/mL | no binding | ~0.03 µg/mL | ~0.2 µg/mL | ~0.03 µg/mL | ~0.4 µg/mL | no binding | no binding | – | – | – |
| Anti-ZIKV clone DT168(A)-D1_A-9E (A9E) (antibody, V domains shown, also called ZV1; A9E mAb) VH: EVQLLESGGGLVQAGGSLRLSCAASGFTFDTYAMSWVRQPPGKGLEWVSAISTGGGSKYYADSVKGRLTISRDNSQNTLYLQMSSLRADDTAVYYCARSDFWRSGRYYYYMDVWGRGTTVTVSS VL: QSALTQPASVSASPGQSITISCTGTHFDIVDYDYLSWYQQHPGNAPKLLIYGVSNRPSGVSSRFSGSKSGNTASLTISGLQAEDEGDYYCSSYSISSTLLVFGGGTKLSV | 4.7 ng/mL | 21.7 ng/mL | 5.3 ng/mL | – | ~0.06 µg/mL | – | ~0.07 µg/mL | no binding | ~0.02 µg/mL | – | ~0.02 µg/mL | ~0.008 µg/mL | – | no binding | 0.005 to 0.01 µg/mL | 0.04 µg/mL | 2.5 µg/mL |
